Reference: paper PMC11784017 (2024)

T1: SVCV-G protein, purified, biotinylated (spring viremia of carp virus (SVCV), UniProt Q91DS0 19-509, biotin (biotinylated))
T1 chain: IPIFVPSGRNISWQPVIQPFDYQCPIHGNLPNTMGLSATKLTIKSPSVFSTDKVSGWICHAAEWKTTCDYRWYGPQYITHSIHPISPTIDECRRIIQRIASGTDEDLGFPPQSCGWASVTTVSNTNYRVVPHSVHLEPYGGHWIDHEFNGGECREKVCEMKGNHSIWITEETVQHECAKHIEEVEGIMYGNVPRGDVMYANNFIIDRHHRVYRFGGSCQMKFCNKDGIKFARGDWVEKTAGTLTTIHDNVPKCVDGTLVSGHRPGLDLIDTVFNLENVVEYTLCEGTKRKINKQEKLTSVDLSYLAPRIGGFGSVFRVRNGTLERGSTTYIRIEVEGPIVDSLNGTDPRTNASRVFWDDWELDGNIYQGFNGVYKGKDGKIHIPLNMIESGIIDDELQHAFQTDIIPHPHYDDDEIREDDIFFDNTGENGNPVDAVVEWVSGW


Target: T1, SVCV-G protein, purified, biotinylated
Assay: BLI

Row | Binder | Kd [µM]
1 | scFv-1 (scFv) chain 1: QSVEESGGRLVTPGTPLTLTCTASGFSLSTYYMTWVRQAPGKGLEWIGIIDPYGTTWSASWVKGRFTISRTSTTVDLKMTSLTAADTATYFCARIDSIYTIGHCDLWGQGTLVTVSL chain 2: ELVMTQTPASVSAAVGGTVTIKCQASQSIGTALAWYQQKPGQPPKLLIYKTSTLASGVSSRFKGSGSGTEFTLTISDLECADAVTYYCQYAYYGGNDVGGAFGGGDRAGDP | 3.12
2 | scFv-2 (scFv) chain 1: QSVEESGGRLITPGTPLTLTCTASGFSLSSHYMIWVRRTPGKGLEWIGLIFISGSTNYANWAKGRFTVSRTSTTVDLKITSPTTEDTATYFCARGRGGTDYQSWLFGLWGQGTVVTVSS chain 2: ELVMTQTPSPVSVAVGGTVTINCQSSPSVYSNYLSWYQQKPGQPPKQLIYGASSLASGVPSRFKGSGSGTQFTLTISGVECDDAATYYCVGWKGGPNGEFAFGGGDRAGDP | 3.71
